Results: patent US20230365705A1 (DYNAMICURE BIOTECHNOLOGY, published 2023)
Read-outs that look alike come from different tables or passages of the source.

Assays:
[1] = target: T1, Human CD93 on cells (human CD93 expressing CHO cells; HUVEC, U937 and KG1a cells) (human, UniProt Q9NPY3 22-652); experiment: flow cytometry titration, CHO-hCD93 cells; antibody stored 2 weeks at 40 C
T1 construct: whole, on cells; also called hCD93 expressing CHO cells; hCD93 CHO cells
T1 sequence (looked up): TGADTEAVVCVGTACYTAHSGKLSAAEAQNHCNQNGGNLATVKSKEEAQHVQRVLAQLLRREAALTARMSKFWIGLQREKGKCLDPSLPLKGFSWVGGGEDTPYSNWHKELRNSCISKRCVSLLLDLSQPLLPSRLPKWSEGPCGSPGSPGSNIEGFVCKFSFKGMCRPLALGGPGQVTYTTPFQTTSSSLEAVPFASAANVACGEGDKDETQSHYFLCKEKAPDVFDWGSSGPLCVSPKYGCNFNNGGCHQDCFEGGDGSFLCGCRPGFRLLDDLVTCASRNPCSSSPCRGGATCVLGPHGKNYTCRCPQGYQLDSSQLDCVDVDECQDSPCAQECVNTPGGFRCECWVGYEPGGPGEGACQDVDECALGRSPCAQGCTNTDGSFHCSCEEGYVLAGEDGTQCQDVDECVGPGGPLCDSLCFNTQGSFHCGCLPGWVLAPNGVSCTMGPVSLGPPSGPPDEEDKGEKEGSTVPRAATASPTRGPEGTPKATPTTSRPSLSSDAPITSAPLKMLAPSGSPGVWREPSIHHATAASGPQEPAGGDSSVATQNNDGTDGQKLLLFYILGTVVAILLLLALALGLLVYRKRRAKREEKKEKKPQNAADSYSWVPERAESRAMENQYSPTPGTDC
Method: (§1) Human CD93 expressing CHO cells were detached by incubation with TrypLE reagents (Thermo Fisher), which preserves the integrity of CD93 on the cell surface. Then the cells were incubated with serial diluted anti-CD93 antibodies for 30 minutes in 4° C. After washing by FACS buffer, the cells were incubated with Alexa Fluor 647 conjugated anti-human IgG (Jackson ImmunoResearch) for 30 minutes at 4° C. After washing by FACS buffer twice, the samples were acquired in NovoCyte Flow Cytometer and analyzed by NovoExpress software.

[2] = target: T2, Human CD93 recombinant protein (Sino Biological Inc, Catalog #12589-H08H) (human, UniProt Q9NPY3 22-580); experiment: BLI (Octet QKe), biotinylated human CD93 on streptavidin biosensors
T2 construct: Biotinylated (EZ-LINK NHS-PEG4 biotin) in the BLI assays; also called hCD93; His-tagged human CD93
T2 sequence (looked up): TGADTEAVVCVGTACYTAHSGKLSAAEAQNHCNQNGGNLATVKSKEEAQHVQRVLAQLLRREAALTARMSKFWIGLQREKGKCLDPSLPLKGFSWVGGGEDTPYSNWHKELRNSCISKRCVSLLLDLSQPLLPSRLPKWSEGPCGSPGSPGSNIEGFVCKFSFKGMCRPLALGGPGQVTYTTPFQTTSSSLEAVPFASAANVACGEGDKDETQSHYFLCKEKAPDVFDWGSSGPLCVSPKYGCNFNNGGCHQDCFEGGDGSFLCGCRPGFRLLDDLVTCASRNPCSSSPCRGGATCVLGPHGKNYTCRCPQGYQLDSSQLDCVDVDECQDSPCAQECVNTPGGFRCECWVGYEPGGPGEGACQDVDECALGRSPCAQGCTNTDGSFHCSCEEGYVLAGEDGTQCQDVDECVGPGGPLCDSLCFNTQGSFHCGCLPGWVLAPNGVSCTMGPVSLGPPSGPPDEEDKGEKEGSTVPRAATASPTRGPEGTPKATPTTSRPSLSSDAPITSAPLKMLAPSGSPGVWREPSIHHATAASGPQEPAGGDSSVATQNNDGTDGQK
Method: The binding affinity of anti-CD93 antibodies was determined with bio-layer interferometry using Octet QKe (Fortebio). […] Human CD93 recombinant protein (Sino Biological Inc, Catalog #12589-H08H) was biotinylated using EZ-LINK NHS-PEG4 biotin (Thermo Fisher Scientific). Streptavidin biosensors (Fortebio) were used to load biotinylated CD93 protein (300 seconds in 5 μg/ml). Baseline was stabilized for 60 seconds in 1×kinetics buffer (Fortebio) before anti-CD93 antibodies, at a serial dilution, were allowed to associate for 300 seconds with captured protein. Then the sensors were dissociated in 1× kinetics buffer for 600 seconds. […] (FIG. 41).

[3] = target: T2, Human CD93 recombinant protein (Sino …); experiment: ELISA, hCD93-His coated, OD450; unit printed as pmM
Method: His-tagged human CD93 was coated onto a 96 well plate at 1 μg/mL in 1×PBS overnight at 4° C. The plate was washed with ELISA wash buffer (Boston BioProduct, Inc.) and the wells were blocked with ELISA blocking buffer for 1 hour at 37° C. Purified antibodies were serially diluted in ELISA blocking buffer (Boston BioProduct, Inc.) and incubated on the receptor for 1 hour at 37° C. The plate was washed with ELISA wash Buffer. […] The plate was washed with ELISA wash buffer. HRP substrate was added for indirect detection of the antibodies binding to CD93.

[4] = target: T1, Human CD93 on cells (human CD93 …); experiment: flow cytometry blocking assay, CHO-hCD93 cells, antibody 50 ug/ml then MMRN2 0.5 ug/ml, APC-A
Method: After incubation, the cells were washed with FACS buffer and incubated with anti-His conjugated APC or streptavidin conjugated APC at a ratio of 1:500 for 30 minutes at 4° C. After washing with FACS buffer twice, the samples were analyzed and data acquired in NovoCyte Flow.

[5] = target: T1, Human CD93 on cells (human CD93 …); experiment: flow cytometry titration, CHO-hCD93 cells; antibody stored 2 weeks at 40 C; remark: listed apart in the source
Method: as §1, with “minutes at” for “minutes in”, “minutes in” for “minutes at”

B1: h7F3 (humanized 7F3, VH3+VL3) (antibody, human IgG1, V domains shown)
VH: QVQLVQSGAEVKKPGASVKVSCKASGYTFTDYEMHWVRQAPGQGLEWMGGIDPETGDTAYNQNFKGRVTMTTDTSTSTAYMELRSLTSDDTAVYYCTNYGNLYYYAMDYWGQGTSVTVSS
VL: EIVLTQSPSSLSASVGDRVTITCRASSSVSSSYLHWYQQKPGKAPKLLIYSTSNLAFGVPSRFSGSGSGTSYTFTISSLQPEDIATYYCQQYSGYPLTFGSGTKLEIK
notes: also called humanized 7F3-hIgG1
[1]
  EC50: 0.194 nM
[2]
  Kd: 0.472 nM
  koff: 0.000321 s⁻¹
  kon: 681000 M⁻¹ s⁻¹

B2: 16E4 (hybridoma) (antibody, IgG2a, V domains shown)
VH: QVQLQQPGAELVKPGASVKLSCKASGYTFTSYWMHWVKQRPGQGLEWIGEIDPSASYTYYNQKFKGKATLTVDKSSSTAYMQLSSLTSEDSAVYYCARSVYYGNKYFDVWGAGTTVTVSS
VL: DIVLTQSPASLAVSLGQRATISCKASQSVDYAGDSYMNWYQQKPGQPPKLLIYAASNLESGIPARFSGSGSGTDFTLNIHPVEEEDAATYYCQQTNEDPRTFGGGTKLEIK
notes: also called 16E4 mAb; 16E4 mIgG2a
[3]
  EC50: 0.112 nM
[4]
  M3 gate, % of cells positive for MMRN2 after the antibody: 65.9%

B3: h16E4 (humanized 16E4, VH4+VL6) (antibody, V domains shown)
VH: QVQLVQSGAEVKKPGASVKVSCKASGYTFTSYWMHWVRQAPGQGLEWMGEIDPSASYTYYNQKFKGRVTMTRDKSSSTVYMELSSLTSEDSAVYYCARSVYYGNKYFDVWGAGTTVTVSS
VL: DIQMTQSPSTLSASVGDRVTITCKASQSVDYAGDSYMNWYQQKPGKAPKLLIYAASNLESGVPSRFSGSGSGTEFTLTISSLQPDDFATYYCQQTNEDPRTFGGGTKLEIK
notes: Detected with anti-human IgG, so a human Fc
[5]
  EC50: 0.274 nM
